The record followed here is article PMC5737856 (Nucleic Acids Research, 2017).

First the molecules themselves.
B4: BEN domain 1 of BEND3 (domain or fragment, human)
chain: MVAKFQPPPEYQLTAAELKQIVDQSLSGGDLACRLLVQLFPELFSDVDFSRGCSACGFAAKRKLESLHLQLIRNYVEVYYPSVKDTAVWQAECLPQLNDFFSRFWAQREMED

In the series “BEN domain 1 of BEND3” the target is B4. The series is described as follows: MST.
The target of series [1] is T1, catalytic SNF2/HELIC region of PICH (human).
T1 sequence (Q2NKX8 whole entry, looked up): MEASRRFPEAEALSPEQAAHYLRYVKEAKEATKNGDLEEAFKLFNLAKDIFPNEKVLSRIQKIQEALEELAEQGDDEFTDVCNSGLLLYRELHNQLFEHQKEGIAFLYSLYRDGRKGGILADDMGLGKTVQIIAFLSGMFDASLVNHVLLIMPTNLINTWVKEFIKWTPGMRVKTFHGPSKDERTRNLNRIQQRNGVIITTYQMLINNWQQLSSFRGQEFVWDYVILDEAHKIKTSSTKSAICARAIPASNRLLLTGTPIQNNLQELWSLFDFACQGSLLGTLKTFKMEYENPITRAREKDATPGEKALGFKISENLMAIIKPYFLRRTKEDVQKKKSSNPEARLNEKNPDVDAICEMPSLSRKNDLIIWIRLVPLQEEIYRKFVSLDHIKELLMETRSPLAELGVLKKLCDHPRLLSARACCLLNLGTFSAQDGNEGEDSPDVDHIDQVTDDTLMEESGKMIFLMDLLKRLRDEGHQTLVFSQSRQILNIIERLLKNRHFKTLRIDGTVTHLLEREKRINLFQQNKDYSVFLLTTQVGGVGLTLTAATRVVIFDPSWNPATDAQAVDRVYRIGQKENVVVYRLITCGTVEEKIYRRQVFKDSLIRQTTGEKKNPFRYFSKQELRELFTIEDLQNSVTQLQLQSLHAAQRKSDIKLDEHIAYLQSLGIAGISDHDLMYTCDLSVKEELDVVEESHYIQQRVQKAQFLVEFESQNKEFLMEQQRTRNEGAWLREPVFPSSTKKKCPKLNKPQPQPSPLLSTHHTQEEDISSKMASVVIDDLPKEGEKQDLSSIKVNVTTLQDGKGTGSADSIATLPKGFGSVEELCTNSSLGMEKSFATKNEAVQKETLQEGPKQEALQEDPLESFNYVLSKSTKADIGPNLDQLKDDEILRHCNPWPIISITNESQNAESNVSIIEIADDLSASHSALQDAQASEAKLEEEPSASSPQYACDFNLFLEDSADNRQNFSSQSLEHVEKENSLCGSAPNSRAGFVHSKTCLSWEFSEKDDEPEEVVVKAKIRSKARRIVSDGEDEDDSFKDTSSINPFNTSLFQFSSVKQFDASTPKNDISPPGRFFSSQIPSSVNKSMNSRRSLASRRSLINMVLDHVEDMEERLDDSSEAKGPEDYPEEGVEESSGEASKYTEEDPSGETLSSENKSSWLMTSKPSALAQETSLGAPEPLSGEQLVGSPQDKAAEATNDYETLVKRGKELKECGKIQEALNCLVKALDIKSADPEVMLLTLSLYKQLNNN
Kind of series: MST.

The series “SEC + native gel or EMSA” deals with the molecule itself. The series is described as follows: SEC + native gel or EMSA.
For series [2], the target named is T2, PICH, full length (recombinant) (human, UniProt Q2NKX8 1-1250).
T2 sequence (looked up): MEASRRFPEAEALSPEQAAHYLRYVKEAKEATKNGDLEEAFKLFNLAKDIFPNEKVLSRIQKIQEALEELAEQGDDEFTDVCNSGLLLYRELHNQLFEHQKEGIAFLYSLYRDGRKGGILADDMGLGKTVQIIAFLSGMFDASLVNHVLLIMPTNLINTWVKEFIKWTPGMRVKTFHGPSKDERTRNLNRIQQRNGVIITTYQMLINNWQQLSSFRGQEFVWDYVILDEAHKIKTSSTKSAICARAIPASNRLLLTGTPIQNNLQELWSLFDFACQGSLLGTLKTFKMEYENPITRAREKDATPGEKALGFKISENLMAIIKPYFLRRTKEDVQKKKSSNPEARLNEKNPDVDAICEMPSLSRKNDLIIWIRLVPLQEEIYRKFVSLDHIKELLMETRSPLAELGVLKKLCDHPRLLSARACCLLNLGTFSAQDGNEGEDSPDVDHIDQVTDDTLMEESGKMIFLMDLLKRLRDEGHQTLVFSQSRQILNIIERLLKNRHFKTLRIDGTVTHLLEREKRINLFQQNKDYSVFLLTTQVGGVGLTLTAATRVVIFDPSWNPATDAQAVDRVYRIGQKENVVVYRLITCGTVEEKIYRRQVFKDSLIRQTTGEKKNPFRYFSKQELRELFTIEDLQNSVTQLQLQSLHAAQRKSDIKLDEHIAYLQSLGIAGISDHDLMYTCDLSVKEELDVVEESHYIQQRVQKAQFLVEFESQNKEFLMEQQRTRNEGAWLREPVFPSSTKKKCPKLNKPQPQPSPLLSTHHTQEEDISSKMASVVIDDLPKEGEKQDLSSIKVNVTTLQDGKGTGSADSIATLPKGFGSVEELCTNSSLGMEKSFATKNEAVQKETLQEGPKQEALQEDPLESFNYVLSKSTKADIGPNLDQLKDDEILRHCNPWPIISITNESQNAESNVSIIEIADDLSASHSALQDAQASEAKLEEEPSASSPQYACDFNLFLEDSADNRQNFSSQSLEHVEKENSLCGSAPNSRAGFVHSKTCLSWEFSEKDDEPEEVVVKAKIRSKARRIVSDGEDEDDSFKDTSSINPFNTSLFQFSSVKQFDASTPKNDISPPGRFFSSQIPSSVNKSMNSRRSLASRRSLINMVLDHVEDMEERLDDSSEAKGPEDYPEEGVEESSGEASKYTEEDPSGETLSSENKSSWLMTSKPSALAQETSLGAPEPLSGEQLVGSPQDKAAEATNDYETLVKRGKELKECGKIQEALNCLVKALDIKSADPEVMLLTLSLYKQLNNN
Kind of series: MST.

The target of series [3] is T2, PICH, full length (recombinant). The series is described as follows: SPR. A general note: SPR reads the build-up and loss of mass on a sensor chip optically.

B1: N-terminal TPR motif of PICH (domain or fragment, human)
chain: AEALSPEQAAHYLRYVKEAKEATKNGDLEEAFKLFNLAKDIFPNEKVLSRIQKIQEA
Usually Kd stands for the constant that tells how readily two partners part at equilibrium. For B1, the Kd in the series with BEN domain 1 of BEND3 is 1200 ± 250 nM.

B2: BEN domain 3 of BEND3 (domain or fragment)
chain: VPGADCLLSKEQLRSIYESSLSIGNFASRLLVHLFPELFTHENLRKQYNCSGSLGKKQLDPSRIKLIRHYVQLLYPRAKNDRVWTLEFVGKLDERCRRRDTEQ
In series [1], B2 had an equilibrium dissociation constant (Kd) of 1500 nM.

B3: isolated N-terminal region of BEND3 (residues 1-534) (domain or fragment, human, UniProt Q5T5X7 1-534, looked up)
chain: MNSTEFTEDVEEVLKSITVKVETEAEDAALDCSVNSRTSEKHSVDSVLTALQDSSKRKQLVSDGLLDSVPGVKRRRLIPEALLAGMRNRENSSPCQGNGEQAGRGRSLGNVWPGEEEPCNDATTPSYKKPLYGISHKIMEKKNPPSGDLLNVYELFEKANASNSPSSLRLLNEPQKRDCGSTGAGTDNDPNIYFLIQKMFYMLNTLTSNMSQLHSKVDLLSLEVSRIKKQVSPTEMVAKFQPPPEYQLTAAELKQIVDQSLSGGDLACRLLVQLFPELFSDVDFSRGCSACGFAAKRKLESLHLQLIRNYVEVYYPSVKDTAVWQAECLPQLNDFFSRFWAQREMEDSQPSGQVASFFEAEQVDPGHFLDNKDQEEALSLDRSSTIASDHVVDTQDLTEFLDEASSPGEFAVFLLHRLFPELFDHRKLGEQYSCYGDGGKQELDPQRLQIIRNYTEIYFPDMQEEEAWLQQCAQRINDELEGLGLDAGSEGDPPRDDCYDSSSLPDDISVVKVEDSFEGERPGRRSKKIWLVPI
Turning to B3, the binding result in “SEC + native gel or EMSA” was “binds”.

As for B4, the Kd in series [2] amounted to 200 ± 250 nM.

B5: BEND3, full length (from HEK293 cells) (natural protein, human, UniProt Q5T5X7 1-828, looked up)
chain: MNSTEFTEDVEEVLKSITVKVETEAEDAALDCSVNSRTSEKHSVDSVLTALQDSSKRKQLVSDGLLDSVPGVKRRRLIPEALLAGMRNRENSSPCQGNGEQAGRGRSLGNVWPGEEEPCNDATTPSYKKPLYGISHKIMEKKNPPSGDLLNVYELFEKANASNSPSSLRLLNEPQKRDCGSTGAGTDNDPNIYFLIQKMFYMLNTLTSNMSQLHSKVDLLSLEVSRIKKQVSPTEMVAKFQPPPEYQLTAAELKQIVDQSLSGGDLACRLLVQLFPELFSDVDFSRGCSACGFAAKRKLESLHLQLIRNYVEVYYPSVKDTAVWQAECLPQLNDFFSRFWAQREMEDSQPSGQVASFFEAEQVDPGHFLDNKDQEEALSLDRSSTIASDHVVDTQDLTEFLDEASSPGEFAVFLLHRLFPELFDHRKLGEQYSCYGDGGKQELDPQRLQIIRNYTEIYFPDMQEEEAWLQQCAQRINDELEGLGLDAGSEGDPPRDDCYDSSSLPDDISVVKVEDSFEGERPGRRSKKIWLVPIDFDKLEIPQPDFEVPGADCLLSKEQLRSIYESSLSIGNFASRLLVHLFPELFTHENLRKQYNCSGSLGKKQLDPSRIKLIRHYVQLLYPRAKNDRVWTLEFVGKLDERCRRRDTEQRRSYQQQRKVHVPGPECRDLTSYAINPERFREEFEGPPLPPERSSKDFCKIPLDELVVPSPDFPVPSPYLLSDKEVREIVQQSLSVGNFAARLLVRLFPELFTAENLRLQYNHSGACNKKQLDPTRLRLIRHYVEAVYPVEKMEEVWHYECIPSIDERCRRPNRKKCDILKKAKKVEK
The stoichiometry N is the number of molecules, sites or subunits per partner or assembly. As to B5, the Kd in series [3] was 700 ± 300 nM. In addition, the “stoichiometry N” value in “SEC + native gel or EMSA” amounted to 8.
